The text below walks through data of patent US7084106.

The assay addresses cell surface class I HLA-ABC molecules on human umbilical cord vascular endothelial cells (HUVECs) (human). Description: flow cytometry on HUVECs, isotype-matched mouse IgG2a control. For orientation: Flow cytometry measures light scatter and fluorescence of single cells or particles in a stream.

“isotype-matched mouse IgG2a mAb (nonspecific mouse monoclonal antibody)”: the percent binding (control threshold) was < 1%.
